Data as given in the supplement of paper PMC10724198.
± gives the standard deviation of the averaged measurements.

Test system: Saccharomyces cerevisiae
Test: protein stability index of tFT-peptide fusion (C-terminal peptide) (PSI (0-1 scale)); higher = more stable (slower turnover)
Conditions: genetic background: wild type; temperature: 30 C
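Further: PSI is a weighted mean of sequencing reads over stability bins, variants kept only with over 10 reads, mCherry proximal and sfGFP distal, peptide attached via GGGS linker.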

Sequence PPTPVSRSPPPA has a protein stability index of 0.665 ± 0.021.
Sequence PLPPAPPPPPPP has a protein stability index of 0.728 ± 0.029.
For CVYGILPRPPDF, the protein stability index was 0.671 ± 0.035.
Work on LRFIIPSDLSFV yielded a protein stability index of 0.696 ± 0.03.
MVKLGVGREEVV was tested, and the protein stability index was 0.655 ± 0.018.
In the case of RGKEREGGRQER, the protein stability index is reported as 0.746 ± 0.045.
TRYRQKRMSITT was tested, and the protein stability index was 0.581 ± 0.014.
PSPSPPRSPALS showed a protein stability index of 0.713 ± 0.056.
Work on FLFCLLGSFRSF yielded a protein stability index of 0.5829 ± 0.004.
GKNKYIYKKKRH was tested, and the protein stability index was 0.792 ± 0.072.
CCPHMLLVLTNI showed a protein stability index of 0.509 ± 0.011.
In the case of CPTLTCPRLPSP, the protein stability index is reported as 0.684 ± 0.11.
Sequence PRSPPPPPPLPP has a protein stability index of 0.626 ± 0.019.
Work on RGGGCNGVSVEG yielded a protein stability index of 0.6899 ± 0.0027.
CLRTVGIAQSSG gave a protein stability index of 0.7019 ± 0.00094.
SLPPPSSHPPPL gave a protein stability index of 0.7 ± 0.09.
For ERGGWGGGSEVG, the protein stability index was 0.684 ± 0.091.
DEIRGERETKGR gave a protein stability index of 0.656 ± 0.036.
With HPPPPPSPPGLP the protein stability index was 0.6578 ± 0.0013.
Work on HRTLPPPPLTVP yielded a protein stability index of 0.579 ± 0.027.
With LNTETNVVLLEG the protein stability index was 0.671 ± 0.035.
Sequence DYLSSPLSSPSP has a protein stability index of 0.667 ± 0.066.
PAPPSLAAPRGT gave a protein stability index of 0.663 ± 0.0092.
Work on DVRYQSLRRSGF yielded a protein stability index of 0.725 ± 0.028.
Work on PFQPPSLIPSRH yielded a protein stability index of 0.746 ± 0.026.
Work on PAHPGRPPILGS yielded a protein stability index of 0.597 ± 0.036.
PPPPTLSPPRSL gave a protein stability index of 0.718 ± 0.034.
For PHPSPGAALFAN, the protein stability index was 0.643 ± 0.019.
Sequence PPRGAPWTRPPQ has a protein stability index of 0.691 ± 0.015.
Sequence HISHPTGDVQTP has a protein stability index of 0.627 ± 0.083.
With GNNLCILNERFP the protein stability index was 0.763 ± 0.019.
For PHPGQSAPPRPP, the protein stability index was 0.654 ± 0.038.
Sequence GSGRVVGSWSVL has a protein stability index of 0.661 ± 0.045.
For ACRSGTRFAGIW, the protein stability index was 0.703 ± 0.016.
For RGRWLIVHCPTQ, the protein stability index was 0.605 ± 0.034.
For GSRVEVGLGVRC, the protein stability index was 0.712 ± 0.027.
PLYLAYKDTLLS showed a protein stability index of 0.69 ± 0.035.
ILSRTEGHCLII showed a protein stability index of 0.739 ± 0.074.
In the case of SGSGGGGMRLGS, the protein stability index is reported as 0.701 ± 0.026.
SPAQLSYLFPAP gave a protein stability index of 0.7928 ± 0.0039.
With LLPGPYPLLSDN the protein stability index was 0.732 ± 0.025.
PPPSSIGRTPIS gave a protein stability index of 0.693 ± 0.033.
Sequence PPPPSPPPIPSP has a protein stability index of 0.706 ± 0.04.
Work on RVPLSPSLRYFV yielded a protein stability index of 0.653 ± 0.026.
With GRRRCGGGGEVC the protein stability index was 0.66 ± 0.064.
Work on KKVTEKSKNEKR yielded a protein stability index of 0.692 ± 0.053.
For GSGALGAGRASR, the protein stability index was 0.723 ± 0.017.
Sequence TRLLAWGVVGLF has a protein stability index of 0.633 ± 0.086.
Sequence WVPLGVVGWFGG has a protein stability index of 0.659 ± 0.038.
Sequence GGGAFVGLDFGG has a protein stability index of 0.684 ± 0.0071.
Work on LKKMIGPLRAGE yielded a protein stability index of 0.686 ± 0.076.
PLCRPARPRHHS gave a protein stability index of 0.7256 ± 0.0015.
With LSSFHCIVTVKD the protein stability index was 0.652 ± 0.028.
GVTGGGVVNRGV was tested, and the protein stability index was 0.689 ± 0.088.
SLQEIWRSKAKV showed a protein stability index of 0.676 ± 0.054.
Work on RSPQPPPSPSSG yielded a protein stability index of 0.692 ± 0.027.
TPVLATAPQGQS gave a protein stability index of 0.71 ± 0.063.
GGAEACSDRGGG gave a protein stability index of 0.704 ± 0.018.
GPGAVTALGYGR gave a protein stability index of 0.668 ± 0.015.
SSPVPLPPNPPA showed a protein stability index of 0.696 ± 0.038.
SSASPVPVLPLT was tested, and the protein stability index was 0.7 ± 0.018.
Sequence RPPHRRRDKKVS has a protein stability index of 0.701 ± 0.031.
With GLVLILRLFSRG the protein stability index was 0.494 ± 0.056.
GRANLAPVPPPR showed a protein stability index of 0.685 ± 0.013.
In the case of IAAVQSGGRVAG, the protein stability index is reported as 0.462 ± 0.057.
Work on SGPHIAFYTSCP yielded a protein stability index of 0.73 ± 0.053.
Work on LIRLLPPPPAVF yielded a protein stability index of 0.487 ± 0.068.
In the case of IGLRKGVGIMRP, the protein stability index is reported as 0.637 ± 0.12.
With GVLPYRYRGLVL the protein stability index was 0.64 ± 0.16.
In the case of RYTTCPVLNPGV, the protein stability index is reported as 0.618 ± 0.018.
For SGLGRLRSGRVL, the protein stability index was 0.698 ± 0.012.
PSLHSPPPPPPR gave a protein stability index of 0.703 ± 0.053.
With GCSQGGRRSGNE the protein stability index was 0.644 ± 0.029.
For VTFTERIAIEWD, the protein stability index was 0.703 ± 0.054.
Sequence DILRSGVYDVCK has a protein stability index of 0.7251 ± 0.00083.
Sequence SLVLLNQHARER has a protein stability index of 0.79 ± 0.036.
With RRTGGEDKHARP the protein stability index was 0.67 ± 0.02.
For SIRGNGCVVCGT, the protein stability index was 0.708 ± 0.093.
Sequence PFPPPHTPLPPS has a protein stability index of 0.791 ± 0.016.
In the case of PPNPFRHTPSIP, the protein stability index is reported as 0.736 ± 0.027.
In the case of GKLQFAEYYNGI, the protein stability index is reported as 0.66 ± 0.0081.
SVPSLPLSFPPF was tested, and the protein stability index was 0.787 ± 0.032.
SGWRYPFGCGAS was tested, and the protein stability index was 0.763 ± 0.1.
For APSGPFLFIMNA, the protein stability index was 0.663 ± 0.047.
Work on KVNWVKAAKKNA yielded a protein stability index of 0.626 ± 0.019.
For RRGEVTQTCGCE, the protein stability index was 0.549 ± 0.054.
With APSPPSVPSPPP the protein stability index was 0.675 ± 0.0088.
Work on RGRLRGPEPKMT yielded a protein stability index of 0.726 ± 0.078.
For DTDIHRKRTRQV, the protein stability index was 0.7 ± 0.037.
VSLGHCGFYSRV was tested, and the protein stability index was 0.648 ± 0.039.
LLGFRLACTSGA showed a protein stability index of 0.648 ± 0.0079.
PHLPPLPPAPPP showed a protein stability index of 0.724 ± 0.12.
PSPPPPSALLSP was tested, and the protein stability index was 0.727 ± 0.066.
Work on GSMWCLTPSAGL yielded a protein stability index of 0.7 ± 0.034.
PPLRLRLPPAVL showed a protein stability index of 0.629 ± 0.095.
Work on PHPPPPRPPPRS yielded a protein stability index of 0.642 ± 0.067.
Sequence FPFPTLSDLRPT has a protein stability index of 0.698 ± 0.036.
With IVAWQGRNLTPL the protein stability index was 0.655 ± 0.12.
In the case of PSLPPPPPPPSP, the protein stability index is reported as 0.614 ± 0.082.
In the case of GVGGEPDLADWG, the protein stability index is reported as 0.762 ± 0.023.
In the case of LVRVLHRSHASA, the protein stability index is reported as 0.685 ± 0.031.
In the case of TCSSQMSSNFRF, the protein stability index is reported as 0.638 ± 0.033.
YTPALFLPVRPA showed a protein stability index of 0.715 ± 0.06.
With GGGDGIHRYAGG the protein stability index was 0.7 ± 0.035.
For MYASVGAIHPRL, the protein stability index was 0.738 ± 0.074.
APRRVPWLLGRV gave a protein stability index of 0.578 ± 0.099.
In the case of IEATHKIDRCKD, the protein stability index is reported as 0.676 ± 0.0086.
In the case of LTNGQRSLCLCS, the protein stability index is reported as 0.6537 ± 0.0048.
In the case of LVLTPPLLSLYP, the protein stability index is reported as 0.683 ± 0.0083.
With ASRRASLSLRGP the protein stability index was 0.73 ± 0.022.
Sequence RFGSLKWGRGCI has a protein stability index of 0.6759 ± 0.0044.
For TKKIKTDTEENN, the protein stability index was 0.701 ± 0.043.
In the case of GKRRTIQPGQKM, the protein stability index is reported as 0.698 ± 0.032.
In the case of SGRSSQNHRCWI, the protein stability index is reported as 0.684 ± 0.012.
Work on SFPRPPSSPSPL yielded a protein stability index of 0.714 ± 0.021.
With RTAKTSARATTL the protein stability index was 0.705 ± 0.039.
With IHRTSVALFFFP the protein stability index was 0.713 ± 0.034.
PPPLASLPSFLR gave a protein stability index of 0.739 ± 0.011.
For CMRVGGWFLFSL, the protein stability index was 0.661 ± 0.051.
FILTSLPSLCFP showed a protein stability index of 0.696 ± 0.04.
Sequence SCTRASSMSLSP has a protein stability index of 0.674 ± 0.024.
SPPSPLYFCSRF gave a protein stability index of 0.661 ± 0.015.
With PLHLPPPFSPRP the protein stability index was 0.7333 ± 0.0063.
CLPLSPPVPHLR showed a protein stability index of 0.738 ± 0.12.
With PHRAPPRETRLG the protein stability index was 0.837 ± 0.015.
In the case of ECGGAVALSDRA, the protein stability index is reported as 0.7672 ± 0.0018.
PPRSPPPPPTLP gave a protein stability index of 0.6578 ± 0.001.
LGILVFRGASFL showed a protein stability index of 0.7351 ± 0.007.
In the case of LGASPTWGPARS, the protein stability index is reported as 0.656 ± 0.016.
Work on YLEDRGTSGSVQ yielded a protein stability index of 0.676 ± 0.054.
Sequence VLGFGGVVLFFL has a protein stability index of 0.642 ± 0.06.
EWYRNNFFFLDL gave a protein stability index of 0.772 ± 0.02.
For PSPRPAPPPPPP, the protein stability index was 0.707 ± 0.054.
GRERASHRGPRN was tested, and the protein stability index was 0.648 ± 0.0066.
PPPRVHPCHPPC was tested, and the protein stability index was 0.678 ± 0.031.
PPHPPLPARPSP gave a protein stability index of 0.681 ± 0.041.
Work on RLAYSSGKAFRV yielded a protein stability index of 0.702 ± 0.012.
Work on KEWLSRDIEDAS yielded a protein stability index of 0.665 ± 0.027.
In the case of APPPAPPLHPPS, the protein stability index is reported as 0.739 ± 0.022.
PPSPSPPAPQAS gave a protein stability index of 0.632 ± 0.05.
SRYYMDRGTLLE gave a protein stability index of 0.625 ± 0.018.
In the case of RRRVTVYAPVDS, the protein stability index is reported as 0.713 ± 0.015.
QLCNQHCKMISD was tested, and the protein stability index was 0.662 ± 0.0082.
PPAHPPPRLHPP gave a protein stability index of 0.541 ± 0.018.
Work on LGVGGRGVVPGA yielded a protein stability index of 0.7 ± 0.031.
Sequence GARSRLFRWWVA has a protein stability index of 0.601 ± 0.012.
